Measured values from patent publication US20120021988A1, “METHODS FOR TREATING IMMUNE THROMBOCYTOPENIA” (priority 2007, published 2012).

What was measured:
FcγIIb [1] = biological target: FcγIIb (UniProt P31994); assay: reverse ELISA (repeat), PAP on FcγIIb/c-coated plate without competitor
[2] = biological target: FcγIIa (His 131 allele aka H161) (UniProt P12318); assay: reverse ELISA (repeat), PAP on FcγIIa (H131 allele)-coated plate without competitor
FcγIIIa = FcγIIIa (UniProt P08637); assay: reverse ELISA, PAP on FcγIIIa-coated plate without competitor
Sequence of UniProt P08637 (P08637 17-208 limits assumed): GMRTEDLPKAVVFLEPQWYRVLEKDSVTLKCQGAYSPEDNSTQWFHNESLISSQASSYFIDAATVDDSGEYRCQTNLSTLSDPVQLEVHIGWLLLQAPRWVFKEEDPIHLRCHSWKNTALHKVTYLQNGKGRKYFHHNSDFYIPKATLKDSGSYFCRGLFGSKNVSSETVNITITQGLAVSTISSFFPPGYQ

[3] = biological target: human C1q (Quidel Corp.) (human) (UniProt P02745); assay: reverse ELISA, PAP on C1q-coated plate without competitor
Sequence of UniProt P02745 (P02745 23-245 limits assumed, chain 1 of 3): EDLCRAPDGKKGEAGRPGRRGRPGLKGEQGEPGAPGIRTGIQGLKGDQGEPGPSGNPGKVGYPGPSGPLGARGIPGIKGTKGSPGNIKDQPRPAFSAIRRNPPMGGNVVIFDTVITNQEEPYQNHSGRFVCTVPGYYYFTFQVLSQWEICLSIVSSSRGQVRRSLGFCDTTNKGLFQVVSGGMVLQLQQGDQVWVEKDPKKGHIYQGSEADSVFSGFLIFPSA
Sequence of UniProt P02745 (P02746 28-253 limits assumed, chain 2 of 3, further chain): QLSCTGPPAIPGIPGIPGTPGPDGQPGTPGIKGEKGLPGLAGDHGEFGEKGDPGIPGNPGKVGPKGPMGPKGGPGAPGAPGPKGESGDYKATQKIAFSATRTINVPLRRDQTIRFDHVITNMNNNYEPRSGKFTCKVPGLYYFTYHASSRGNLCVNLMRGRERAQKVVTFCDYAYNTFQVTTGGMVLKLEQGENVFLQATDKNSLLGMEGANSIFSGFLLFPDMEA
Sequence of UniProt P02745 (P02747 29-245 limits assumed, chain 3 of 3, further chain): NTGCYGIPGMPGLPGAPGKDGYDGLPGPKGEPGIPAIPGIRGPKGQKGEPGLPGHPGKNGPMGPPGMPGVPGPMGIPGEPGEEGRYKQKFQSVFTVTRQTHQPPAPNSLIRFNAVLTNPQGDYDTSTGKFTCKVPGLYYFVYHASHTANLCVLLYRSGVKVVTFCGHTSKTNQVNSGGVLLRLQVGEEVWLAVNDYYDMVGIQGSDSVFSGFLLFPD

FcγIIb [4] = biological target: FcγIIb (UniProt P31994); assay: reverse ELISA, PAP on FcγIIb-coated plate without competitor
FcγI = FcγI (UniProt P12314); assay: reverse ELISA (repeat), PAP on Fcγ1-coated plate without competitor
Sequence of UniProt P12314 (P12314 16-288 limits assumed): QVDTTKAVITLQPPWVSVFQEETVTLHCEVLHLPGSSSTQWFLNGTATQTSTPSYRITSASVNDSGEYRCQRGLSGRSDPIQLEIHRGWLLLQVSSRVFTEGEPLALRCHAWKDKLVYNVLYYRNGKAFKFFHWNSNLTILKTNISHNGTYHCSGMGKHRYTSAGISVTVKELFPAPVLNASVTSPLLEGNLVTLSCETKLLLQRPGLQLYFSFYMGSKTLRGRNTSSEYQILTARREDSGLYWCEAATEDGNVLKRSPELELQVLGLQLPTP

FcγIIa (R131 allele) = FcγIIa (R131 allele) (UniProt P12318); assay: reverse ELISA, PAP on FcγIIa (R131 allele)-coated plate without competitor
FCγIIIb (NA2) = FCγIIIb (NA2) (UniProt O75015); assay: reverse ELISA (repeat), PAP on FcγIIIb (NA2)-coated plate without competitor
Sequence of UniProt O75015 (O75015 17-200 N65S limits assumed): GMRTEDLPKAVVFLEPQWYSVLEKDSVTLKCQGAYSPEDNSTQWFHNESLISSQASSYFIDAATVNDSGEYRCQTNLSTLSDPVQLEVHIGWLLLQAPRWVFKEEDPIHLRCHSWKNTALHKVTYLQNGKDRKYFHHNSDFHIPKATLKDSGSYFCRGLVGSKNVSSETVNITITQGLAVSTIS

[5] = biological target: PAP complex: preformed immune complex of peroxidase and rabbit anti-peroxidase IgG (horseradish) (UniProt P00433); assay: reverse ELISA competition: PAP pre-incubated with peptide, then on plate coated with FcγIIIa; signal is PAP left bound to the receptor
[6] = biological target: PAP complex: preformed immune complex of peroxidase and rabbit anti-peroxidase IgG (horseradish) (UniProt P00433); assay: reverse ELISA competition (repeat): inhibition by the peptide of PAP binding to immobilised FcγIIa (H131 allele)
[7] = biological target: PAP complex: preformed immune complex of peroxidase and rabbit anti-peroxidase IgG (horseradish) (UniProt P00433); assay: reverse ELISA competition (repeat): PAP pre-incubated with peptide, then on plate coated with Fcγ1; signal is PAP left bound to the receptor
[8] = biological target: PAP complex: preformed immune complex of peroxidase and rabbit anti-peroxidase IgG (horseradish) (UniProt P00433); assay: reverse ELISA competition (repeat): PAP pre-incubated with peptide, then on plate coated with FcγIIb/c; signal is PAP left bound to the receptor
[9] = biological target: PAP complex: preformed immune complex of peroxidase and rabbit anti-peroxidase IgG (horseradish) (UniProt P00433); assay: reverse ELISA competition (repeat): inhibition by the peptide of PAP binding to immobilised FcγIIIb (NA2)
[10] = biological target: PAP complex: preformed immune complex of peroxidase and rabbit anti-peroxidase IgG (horseradish) (UniProt P00433); assay: reverse ELISA competition (repeat): PAP pre-incubated with peptide, then on plate coated with FcγIIa (H131 allele); signal is PAP left bound to the receptor
[11] = biological target: PAP complex: preformed immune complex of peroxidase and rabbit anti-peroxidase IgG (horseradish) (UniProt P00433); assay: reverse ELISA competition (repeat): inhibition by the peptide of PAP binding to immobilised Fcγ1
[12] = biological target: PAP complex: preformed immune complex of peroxidase and rabbit anti-peroxidase IgG (horseradish) (UniProt P00433); assay: reverse ELISA competition: PAP pre-incubated with peptide, then on plate coated with FcγIIb; signal is PAP left bound to the receptor
[13] = biological target: PAP complex: preformed immune complex of peroxidase and rabbit anti-peroxidase IgG (horseradish) (UniProt P00433); assay: reverse ELISA competition: PAP pre-incubated with peptide, then on plate coated with FcγIIa (R131 allele); signal is PAP left bound to the receptor
[14] = biological target: PAP complex: preformed immune complex of peroxidase and rabbit anti-peroxidase IgG (horseradish) (UniProt P00433); assay: reverse ELISA competition: PAP pre-incubated with peptide, then on C1q-coated plate; signal is PAP left bound to immobilised human C1q (lower = more inhibition)
[15] = biological target: PAP complex: preformed immune complex of peroxidase and rabbit anti-peroxidase IgG (horseradish) (UniProt P00433); assay: reverse ELISA competition (repeat): inhibition by the peptide of PAP binding to immobilised FcγIIb/c
[16] = biological target: PAP complex: preformed immune complex of peroxidase and rabbit anti-peroxidase IgG (horseradish) (UniProt P00433); assay: reverse ELISA competition (repeat): PAP pre-incubated with peptide, then on plate coated with FcγIIIb (NA2); signal is PAP left bound to the receptor

Sequence of UniProt P31994 (P31994 46-217 limits assumed): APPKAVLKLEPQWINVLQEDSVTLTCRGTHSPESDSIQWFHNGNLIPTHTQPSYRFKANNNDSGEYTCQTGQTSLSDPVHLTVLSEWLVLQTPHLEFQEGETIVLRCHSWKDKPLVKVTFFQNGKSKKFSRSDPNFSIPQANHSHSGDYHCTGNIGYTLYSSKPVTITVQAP

OD 405 nm (FcγIIb [1]) [OD 405 nm] | OD 405 nm [2] [OD 405 nm] | OD405 (FcγIIIa) [OD405] | OD 405 nm [3] [OD 405 nm] | OD405 (FcγIIb [4]) [OD405] | OD 405 nm (FcγI) [OD 405 nm] | OD405 (FcγIIa (R131 allele)) [OD405] | OD 405 nm (FCγIIIb (NA2)) [OD 405 nm] | OD405 [5] [OD405] | % inhibition of IC binding [6] [%] | OD 405 nm [7] [OD 405 nm] | OD 405 nm [8] [OD 405 nm] | % inhibition of IC binding [9] [%] | OD 405 nm [10] [OD 405 nm] | % inhibition of IC binding [11] [%] | OD405 [12] [OD405] | OD405 [13] [OD405] | OD 405 nm [14] [OD 405 nm] | % inhibition of IC binding [15] [%] | OD 405 nm [16] [OD 405 nm] | Molecule
2.22 | 3.51 | 1.59 | 2.35 | 1.39 | 2.33 | 1.6 | 3.06 | – | – | – | – | – | – | – | – | – | – | – | – | PAP complex: preformed immune complex of peroxidase and rabbit anti-peroxidase IgG (from UniProt P00433 31-338)
– | – | – | – | – | – | – | – | 0.67 | 94 | 0.264 | 0.266 | 91 | 0.209 | 89 | 0.496 | 0.509 | 0.389 | 88 | 0.266 | APPDCAWHLGELVWCT [Peptide … (SEQ ID NO:20)]
